Experimental findings from patent US20110020346A1 are described below.

Assay [1] concerns the target T1, murine VEGF (mVEGF) (mouse) (UniProt Q00731).
T1 sequence (looked up): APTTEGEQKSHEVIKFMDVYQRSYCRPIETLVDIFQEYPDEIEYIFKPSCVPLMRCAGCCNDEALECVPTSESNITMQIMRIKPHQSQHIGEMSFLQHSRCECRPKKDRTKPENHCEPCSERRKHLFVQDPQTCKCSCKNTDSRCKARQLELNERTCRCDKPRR
Nature of the assay: method not stated, 25 C, unpublished results.

The next assay has as its target mouse VEGF-A165 (mouse) (UniProt Q00731). As to the kind of experiment: ELISA with purified Fab (direct on coated antigen or solution binding), 25 C.

Sequence of Y0317 Fab (VH): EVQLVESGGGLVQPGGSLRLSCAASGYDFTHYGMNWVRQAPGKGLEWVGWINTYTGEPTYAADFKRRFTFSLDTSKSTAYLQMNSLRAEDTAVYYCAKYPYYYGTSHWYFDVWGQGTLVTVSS
Sequence of Y0317 Fab (VL): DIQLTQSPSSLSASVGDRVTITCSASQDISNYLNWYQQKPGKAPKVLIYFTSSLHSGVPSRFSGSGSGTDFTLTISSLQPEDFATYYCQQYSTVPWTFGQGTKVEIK

Y0317 Fab gave a Kd in assay [1] of 300 nM.
Consider G6 Fab, for which, in the assay with mouse VEGF-A165 (mouse), the value printed without a name (ELISA) is 0.6 nM.
